The source of these data is paper PMC2943609.

The target in data set [1] is T1, CggR (Bacillus subtilis, UniProt O32253 1-340). Put plainly: SEC and SAXS.
In data set [2] the target is T1, CggR. Description: two-photon FCCS.
In data set [3] the target is T1, CggR. Put plainly: SEC and SAXS. This is another data set of the same source.

T1 sequence (O32253 whole entry): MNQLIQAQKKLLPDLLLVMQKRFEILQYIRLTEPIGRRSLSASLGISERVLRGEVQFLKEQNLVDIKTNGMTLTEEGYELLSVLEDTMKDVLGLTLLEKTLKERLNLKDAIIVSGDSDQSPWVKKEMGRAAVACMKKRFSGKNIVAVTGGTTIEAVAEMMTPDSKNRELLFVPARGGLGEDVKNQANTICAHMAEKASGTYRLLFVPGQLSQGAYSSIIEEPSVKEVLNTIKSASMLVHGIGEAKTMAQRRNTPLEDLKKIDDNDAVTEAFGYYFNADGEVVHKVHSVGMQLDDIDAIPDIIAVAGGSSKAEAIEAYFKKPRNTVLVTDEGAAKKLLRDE

B1: OR right half-operator, 23 bp (dsDNA)
DNA 1: TAGCGGGACATATAATGTCCAGC
DNA 2: GCTGGACATTATATGTCCCGCTA
In the case of B1, the binding result in the data set with CggR [1] is “binds”.

B2: OR 23 bp, fluorescent (mix of two singly labelled duplexes) (dsDNA)
DNA 1: TAGCGGGACATATAATGTCCAGC
DNA 2: GCTGGACATTATATGTCCCGCTA
For B2, the binding result in the data set with CggR [2] is recorded as “binds”.

B3: OLR full-length gapA operator, 45 bp (dsDNA)
DNA 1: TGACGGGACGTTTTTTGTCATAGCGGGACATATAATGTCCAGCAA
DNA 2: TTGCTGGACATTATATGTCCCGCTATGACAAAAAACGTCCCGTCA
As to B3, the binding result with CggR [3] is listed as “binds”.
